Reference: the supplement of paper PMC9170038

Tested on: MS2 coat protein
Experiment: apparent KD of MS2 coat protein; higher = weaker reporter binding
Conditions: Eterna round: R107
In short: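 For every design, apparent KD is the median of normalised binding-curve fits from its clusters. The RNA switches were transcribed on-chip from Illumina sequencing clusters and titrated with SNAP-549-labelled MS2 coat protein (twofold steps, 0.7 or 1.5 nM to 3 µM; 0.8–1.5 h to 10–20 min per step). Titrations used 100 mM Tris-HCl pH 7.5, 80 mM KCl, 4 mM MgCl2, without or with constant ligand.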

[1] = input ligand: theophylline 20 uM
[2] = input ligand: tryptophan 2.4 mM
[3] = input ligand: theophylline 2 mM

| Sequence | apparent KD of MS2 coat protein (input ligand: arginine 13.2 mM) [nM] | apparent KD of MS2 coat protein [1] [nM] | apparent KD of MS2 coat protein [2] [nM] | apparent KD of MS2 coat protein (input ligand: none) [nM] | apparent KD of MS2 coat protein [3] [nM] |
| --- | --- | --- | --- | --- | --- |
| AGAACUUUGGUGGAUACCAGCUUCUGGCCAUCCUUCAAAUACAUGAGGAUCACCCAUGUUAGCCCUUGGCAGCCAACAUAGACUG [theeternabot_exclusion_MS2_Theo_B_44] | 21.7 | 33 | 21.6 | – | – |
| AGAAUAACACAUGAGGAUCACCCAUGUGAUACCAGCUAGGAAACUAGCCCUUGGCAGCACAUAAUCCUCAUGAAUGUGCUGAAUA [(M1)-(M2)-(T1)-(T2)-(M)'-(T)'_Design3_2/19/17] | 37.3 | 121 | 59.7 | – | – |
| AGAAUAACAUGAGCAAAGCUCAUGUGCGAAGGAGCGGCGGAAACGCCAGGUAGGUCGCGCACAUGAGCAUCAGCCAUGUGUACCA [Omei Arginine B SS A v5] | 11.5 | 201 | 58.9 | 30.7 | 65.8 |
| AGAAUACAUGUUUUAAUACGGAAAACUGAUACCAGUGUAUCUAUUCACCCUUGGCAGCAGAGACAUGAGGAUCACCCAUGUAUUA [JR_Nu_SSTheophyA_Sub019] | 28.1 | 41.2 | 46.6 | – | – |
| AGACAUGAGGAUCACCCAUGUAGUACGGAUACCAGAUCCAGAUGUAUCCCUUGGCAGCUGUGGUACAGCGUUGCAACGCUCCUAG [Exclusion - Theophylline A (Freestyle 18)] | 15 | 23.9 | 15.2 | – | – |
| AGACAUGAGGAUCACCCAUGUAGUACGGAUACCAGAUCCAGAUGUAUCCCUUGGCAGCUGUGGUACAGCGUUGCAUCGCUCCUAG [Exclusion - Theophylline A (Freestyle 19)] | 13.1 | 20.6 | 14.4 | 16.6 | 20.1 |
| AGACAUGAGGAUCACCCAUGUAGUAUGGAUACCAGAUCCAGAUUUAUCCCUUGGCAGCUGUGGUACAGCGUUGGAUCGCUCCUAG [Exclusion - Theophylline A (Freestyle 12)] | 22.3 | 34.6 | 27.8 | – | – |
| AGACAUGAGGAUCACCCAUGUAGUAUGGAUACCAGAUCCAGAUUUAUCCCUUGGCAGCUGUGGUACAGUGAUGGAUUGCUCCUAG [Exclusion - Theophylline A (Freestyle 9)] | 30.4 | 52 | 32.7 | – | – |
| AGACAUGAGGAUCACCCAUGUAGUAUGGAUACCAGAUGUAGAUUAGUCCCUUGGCAGCUGUGCUGAAGUGAUGCAUUGCUCCUAG [#15 Exclusion-TheophyllineA] | 21.9 | 33.5 | 23.6 | 22.1 | 24.2 |
| AGAUGAGUCACGGCCGCCACUCACUACAGGUUCACCCUUGGUUAACAUGAGGAUCACCCAUGUGGGAGGACCGGGUGAUGAGCAU [XTryp B #4] | 18.5 | 32.7 | – | – | 25.6 |
| AGAUGAGUCACGGCCGCCACUCUUAUCAGGAUCACCCAUGGUUAACAUGAGGAUCACCCAUGUCUGAGGACCGGGUGAUGAGCAU [XTryp B #2] | 18.3 | 31.4 | – | – | 25.3 |
| AGAUGAGUCACGGCCGCCACUCUUCACAGGUUCACCCUUGGUUAACAUGAGGAUCACCCAUGUGGGAGGACCGGGUGAUGAGCAU [XTryp B #5] | 14.2 | 17.3 | – | – | 15.6 |
| AGAUGUAGCGGAAGGAGCGACUUGAGGAUCACCCAAGUCUCCCGUUGUGGGAGUUCCUUAGGUCAGGUAGGUCGCCGUUACGUCA [Omei Arg B SS B v3] | 31.6 | 154 | 82.8 | 145 | 310 |
| AGAUUACAUGUUUUAAUAAGAUAAACUGAUACCAGUGUAUAUAUUCACCCUUGGCAGCAGCAACAUGAGGAUCACCCAUGUAUUA [JR_SSTheophyA_Sub015] | 14.4 | 18.7 | 16.7 | – | – |
| AGAUUCGACACGGCCGCCACUCGUGGAGGAUUACCGAGUGUCGAACAUGAGGAUCACCCAUGUACGAGGACCGGGUGUUGAGUCU [XTryp B #15] | 23.5 | 32.2 | 179 | 27.3 | 28.5 |
| AGAUUCGACACGGCCGCCACUUGUGGUGGAUUAUCCUGUGUCGAACAUGAGGAUCACCCAUGUACAAGGACCGGGUGUUGAGUCU [XTryp B #20] | 60.2 | 151 | – | – | 136 |
| AGCAAGUUCGGAAGGAGCGGUACAUGAGGAUCACCCAUGUAUUCAAUCGUGAUCGGAACGUGCCAGGUAGGUCGCCGAAUGCGUC [XArg-B1] | 13.3 | 23.1 | 15 | 13.1 | 15.9 |

| Sequence | apparent KD of MS2 coat protein (input ligand: arginine 13.2 mM) [nM] | apparent KD of MS2 coat protein [1] [nM] | apparent KD of MS2 coat protein [2] [nM] | apparent KD of MS2 coat protein (input ligand: none) [nM] | apparent KD of MS2 coat protein [3] [nM] |
| --- | --- | --- | --- | --- | --- |
| AGCACGGUGAUGGUAGCCGGACGCUAGGUACGAGGACCGGUACGGCCGCCACUCGAAGUCCUACGACAUGAGGAUCACCCAUGUA [Same State Trp A GF13] | 37.9 | 59.2 | – | – | 75.2 |
| AGCAGCUCGAAAGAGUUGCACUCAUGUGAAGGAGCGCGCGUUAGCGCAGGUAGGUCGCACAUGAGGAUCACCCAUGUACCUUCUA [MAT - Exclusion Arginine A - Mod of Eli - D15] | 87.3 | 211 | 108 | 173 | 268 |
| AGCAGUACAACAGAUACCAGACUUUUCAUGCCUUUAAUUACAUGAGGAUCACCCAUGUUUGUCCCUUGGCAGCUGUUGUACUGCA [JR_ExcTheophyB_Sub011] | 29.5 | 62.8 | 39.9 | – | – |
| AGCAUGUUAUCAGAUACCAGACAUCUUUUAAUACAUAUUACAUGAGGAUCACCCAUGUUGGUCCCUUGGCAGCUGAAAUAUUUCA [JR_Nu_SSTheophyB_Sub023] | 124 | 223 | 360 | – | – |
| AGCCCGGGAGCGGCCGCCACUGGAGGCUUUGCGCGACAUGAGGAUCACCCAUGUGUGCCCGGCGUUAGGACCGGGCUCGCGUGGU [#1 Same State - Tryptophan B Attempt #21 (HarryS)] | 27.8 | 32.5 | 46.9 | 33.4 | 55.3 |
| AGCCCGUGAGCGGCCGCCACUGGAGGCUUUGCGCGACAUGAGGAUCACCCAUGUGUGCCCGGCGUUAGGACCGGGUUCACGUGGU [#1 Same State - Tryptophan B Attempt #19 (HarryS)] | 59.4 | 226 | 124 | 304 | 838 |
| AGCCCGUGAGCGGCCGCCACUGGAGGCUUUGCGCGACAUGAGGAUCACCCAUGUGUGCCCGGCGUUAGGACCGGGUUCGCGUGGU [#1 Same State - Tryptophan B Attempt #18 (HarryS)] | 30 | 48.7 | 32.4 | 38.5 | 45.4 |
| AGCCCUGUGCUAGAUACCAGCUACAUGAGGAUCACCCAUGUGCGUCAGAAAUGACUGUGUAGCCCUUGGCAGCUAAAUGCAUGUA [Exclusion - Theophylline B (Freestyle 7)] | 13.8 | 16.5 | 11 | – | – |
| AGCCGCGUUCUUUCUUUCUUUCUAGCGGCACGAGGACCGGUACGGCCGCCACUCGCCCACAUGAGGAUCACCCAUGUAGUGGGUG [The One Ring #2] | 18.5 | 27.7 | – | – | 23.9 |
| AGCCGGAUUACGGCCGCCACUGUAGACGUGACGAAAGUCGCGUCAACAUGAGGAUCACCCAUGUACAGGACCGGGUGGUCCGGCG [Omei Trp B SS A v1] | 15 | 22.2 | 6.02 | 13.7 | 17.8 |
| AGCCGGAUUACGGCCGCCACUGUAGACGUGACGAAAGUCGCGUCAACAUGAGGAUCACCCAUGUACAGGACCGGGUGGUCGGGCG [Omei Tryp B SS A v5] | 74.1 | 247 | – | – | 240 |
| AGCCGUACGUACGGAAACGUACGUACGGCACGAGGACCGGUACGGCCGCCACUCGCCCACAUGAGGAUCACCCAUGUAGUGGGUG [The One Line] | 23.4 | 58.2 | 103 | 43.7 | 53.4 |
| AGCCUCAUACAUGAGGAACACCCAUGUGAUACCAGUCAGGAAACUGACCCUUGGCAGCGCAUGAGGAUCACCCAUGCGCGAGGCA [Omei Theo A Exc A v3] | 20.4 | 78.2 | 47.7 | 63 | 237 |
| AGCGACAUGCAUGAUACCAGCUACAUGAGGAUCACCCAUGUACGUCAGUAAUGACUGUGUAGCCCUUGGCAGCAUAGAGCAUGUA [Exclusion - Theophylline B (Freestyle 14)] | 17.7 | 28 | 18.4 | – | – |
| AGCGACAUGCGUGAUACCAGCUACAUGAGGAUCACCCAUGUACGUAGGAAACUACUGUGUAGCCCUUGGCAGCAUAGUGCAUGUC [Exclusion - Theophylline B (Freestyle 21)] | 14.6 | 20 | 13.5 | – | – |
| AGCGACAUGCGUGAUACCAGCUACAUGAGGAUCACCCAUGUCAGUAGGAAACUACUGUGUAGCCCUUGGCAGCACAGUGCAUGUC [Exclusion - Theophylline B (Freestyle 26)] | 12.3 | 31.9 | 17.7 | 16.4 | 30.2 |
